Our source for the unfolding free energy values is FireProtDB (doi:10.1002/pro.5560010205).

For the series the following is noted: Mus musculus; pH 4; 23 °C; GdnHCl; Fluorescence; sodium phosphate 100 mM; reversible: yes; whole UniProt chain shown.

B1: Beta-nerve growth factor wild type, P01139 (protein)
chain: MSMLFYTLITAFLIGVQAEPYTDSNVPEGDSVPEAHWTKLQHSLDTALRRARSAPTAPIAARVTGQTRNITVDPRLFKKRRLHSPRVLFSTQPPPTSSDTLDLDFQAHGTIPFNRTHRSKRSSTHPVFHMGEFSVCDSVSVWVGDKTTATDIKGKEVTVLAEVNINNSVFRQYFFETKCRASNPVESGCRGIDSKHWNSYCTTTHTFVKALTTDEKQAAWRFIRIDTACVCVLSRKATRRG
Take B1: the unfolding free energy came out at 14.5 kcal/mol.
